From US20020156245A1

target: human Ptch (SEQ ID NO:4) (human) (UniProt Q13635); assay: Scatchard analysis of displacement of 125I-Shh from 293 cells expressing Ptch

Row | Substance | Kd [nM]
1 | Ihh (SEQ ID NO:29) (from UniProt P97812 28-202) (ligand) | 1
2 | Shh (SEQ ID NO:14), 19 kD amino terminal fragment of murine Shh (from UniProt Q62226 25-198) (ligand) | 1
3 | Dhh (SEQ ID NO:13) (from UniProt Q61488 23-198) (ligand) | 2.6
